Test results published in patent US20200157226A1 (DRAGONFLY THERAPEUTICS, published 2020).

How the values were obtained:
[1] = biological target: T1, human NKG2D expressed on cells (primary human NK cells); EL4 mouse lymphoma cell lines engineered to express … (human, UniProt P26718 1-216); assay: flow cytometry on primary human NK cells
T1 construct: whole, on cells; also called NKG2D expressed on EL4 cells; NKG2D on primary human NK cells
T1 sequence (looked up): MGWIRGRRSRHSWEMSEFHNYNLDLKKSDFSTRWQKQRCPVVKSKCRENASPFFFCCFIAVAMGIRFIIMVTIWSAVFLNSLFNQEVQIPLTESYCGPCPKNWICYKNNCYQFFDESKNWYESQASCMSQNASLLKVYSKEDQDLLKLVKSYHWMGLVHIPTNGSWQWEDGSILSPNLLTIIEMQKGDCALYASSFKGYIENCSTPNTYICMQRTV
Description: Primary human NK cells and EL4 mouse lymphoma cell lines engineered to express human NKG2D were used to test binding affinity of trispecific binding proteins (TriNKETs) to NKG2D. Each of the TriNKETs tested contains an NKG2D-binding domain, a tumor-associated antigen binding domain (e.g., a 5T4-binding domain), and an Fc domain that binds to CD16 as shown in FIG. 1. TriNKETs were diluted to 20 μg/mL, and then diluted serially. The binding of the TriNKETs or the parental anti-5T4 monoclonal antibodies to NKG2D were detected using fluorophore-conjugated anti-human IgG secondary antibodies. Cells were analyzed by flow cytometry, and fold-over-background (FOB) was calculated by normalizing the mean fluorescence intensity (MFI) to human recombinant IgG1 staining control.

[2] = biological target: T2, 5T4 expressed on human cancer cell lines (human, UniProt Q13641 32-420); assay: flow cytometry on 5T4-expressing human cancer cell lines
T2 construct: the assays used endogenous 5T4 on BxPC3, H146, H1975, HCT116, MCF7 and N87 cells; also called tumor-associated 5T4 antigen; human trophoblast glycoprotein 5T4
T2 sequence: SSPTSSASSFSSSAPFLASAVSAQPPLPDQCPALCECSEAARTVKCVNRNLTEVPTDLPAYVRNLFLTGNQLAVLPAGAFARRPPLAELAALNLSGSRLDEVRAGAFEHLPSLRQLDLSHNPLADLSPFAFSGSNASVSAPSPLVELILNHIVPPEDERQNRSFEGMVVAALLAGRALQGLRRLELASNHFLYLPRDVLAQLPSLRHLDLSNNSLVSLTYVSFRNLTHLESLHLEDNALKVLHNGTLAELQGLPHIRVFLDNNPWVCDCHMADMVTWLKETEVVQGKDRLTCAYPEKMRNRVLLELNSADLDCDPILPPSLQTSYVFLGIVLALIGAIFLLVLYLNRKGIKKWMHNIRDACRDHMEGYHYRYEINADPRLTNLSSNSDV
Description: (§1) Human cancer cell lines (BxPC3, H146, H1975, HCT116, MCF7 and N87) expressing the tumor-associated 5T4 antigen were used to assay the binding of 5T4-targeting TriNKETs to the antigen. In separate experiments, the TriNKETs or the parental anti-5T4 monoclonal antibodies were incubated with the each of the cell lines, and the binding of the TriNKETs or anti-5T4 monoclonal antibodies to the cells was detected using fluorophore-conjugated anti-human IgG secondary antibodies. Flow cytometry was used to analyze the binding of the TriNKETs or anti-5T4 monoclonal antibodies to the cells, and fold-over-background (FOB) was calculated by normalizing the mean fluorescence intensity (MFI) to human recombinant IgG1 staining control.

[3] = biological target: T2, 5T4 expressed on human cancer cell lines; assay: flow cytometry on BxPC3 cells
Description: as §1

B1: anti-5T4 monoclonal antibody 5T4R (antibody, V domains shown)
VH: EVHLLESGGGLVHPGGSLRLSCAASGFTFRSDAMHWVRQAPGKGLEWVSGVSGSGGSPYYADSVKGRFTISRDDSKTTLYLQMNSLRAEDTAVYYCATGGSIAGSYYYYPMDVWGQGTTVTVSS
VL: DIQMTQSPSSLSASVGDRVTITCQASQDISNYLNWYQQKPGKAPKLLIYAASTLQIGVPSRFSGSGSGTDFTFTISSLQPEDFATYYCQQANSFPLTFGGGTKVEIK
notes: detected with anti-human IgG secondary antibody; also called parental anti-5T4R monoclonal antibody; 5T4 monoclonal antibody (mAb)
Q: Does B1 bind [1]?
A: no binding

Q: Does B1 bind [2]?
A: binds

B2: anti-5T4 monoclonal antibody 5T4A (antibody, V domains shown)
VH: EVQLVESGGGLVQPGGSLRLSCAASGFTFSNYWMNWVRQAPGKGLEWVGEIRLKSDKYATYYAESVKGRFTISRDDSKNSLYLQMNNLKTEDTGVYYCARRRGYYGSAYGMDYWGQGTLVTVSS
VL: DIQMTQSPSSLSASVGDRVTITCKASQDINSYLSWFQQKPGKAPKILIYRANRLVDGVPSRFSGSGSGKDFTFTISSLQPEDIATYYCLQYDFLPLTFGGGTKVEIK
notes: detected with anti-human IgG secondary antibody; also called 5T4 monoclonal antibody (mAb)
Q: What does the source list for B2?
A: binding result [1]: no binding; binding result [3]: binds
